Molecular target: Human PCNA (human, UniProt P12004 1-261)
Assay: pull-down

Sequence of Human PCNA (P12004 whole entry): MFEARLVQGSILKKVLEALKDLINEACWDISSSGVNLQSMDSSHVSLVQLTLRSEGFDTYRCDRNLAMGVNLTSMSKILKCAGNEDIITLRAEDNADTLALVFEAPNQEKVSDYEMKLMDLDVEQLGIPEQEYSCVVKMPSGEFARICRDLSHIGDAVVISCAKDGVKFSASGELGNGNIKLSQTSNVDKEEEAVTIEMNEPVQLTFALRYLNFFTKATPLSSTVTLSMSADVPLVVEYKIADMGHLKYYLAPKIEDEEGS

binding result: binds
Binder: ARHPSTKVMKQMDIGVYFGLPPKRKEEKLL [GST-tagged SNM1A PIP box peptide (GST-PIP)]
